Values quoted from earlier work, collected in article PMC3288358 (ACS Chemical Biology, 2011).

Experiments:
[1] = molecular target: hMc3R (Homo sapiens, UniProt P41968); conditions: read-out: Mc3R EC50; cAMP assay; data adapted from ref Wilczynski et al. ([34])
[2] = test system: male Long-Evans rats; conditions: requires higher minimal doses for activation; ref [8]

Sequence of hMc3R (P41968 whole entry): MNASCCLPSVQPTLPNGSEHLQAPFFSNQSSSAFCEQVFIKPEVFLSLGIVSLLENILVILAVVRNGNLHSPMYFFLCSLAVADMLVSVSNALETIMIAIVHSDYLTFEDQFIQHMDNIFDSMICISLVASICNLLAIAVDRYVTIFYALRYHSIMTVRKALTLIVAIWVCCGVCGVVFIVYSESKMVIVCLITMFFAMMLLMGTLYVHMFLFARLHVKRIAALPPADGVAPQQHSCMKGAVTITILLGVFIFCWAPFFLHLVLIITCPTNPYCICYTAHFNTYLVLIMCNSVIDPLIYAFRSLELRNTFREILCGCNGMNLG

EC50 [1] [nM]	Substance	Long-term feeding response compared with AgRP [2]
8.9 ± 0.2	AgRP(87-132): Truncated AgRP lacking the four residue N-terminal segment, N-terminal acetylated	
	SHU9119	long-term response similar to AgRP
